Assays:
[1] = test system: T1, CCCC(=O)Oc1ccc([N+](=O)[O-])cc1; assay: p-nitrophenol release, Lineweaver-Burk plot; type: biochemical, uncultured bacterium; settings: 50 mM Tris-HCl pH 8.0, 100 mM NaCl, 30 °C, 0.1-1.25 mM substrate
T1 construct: dimer ~70 kDa; residues Cys49 and Cys207
Source text: p-nitrophenol release, Lineweaver-Burk plot on PMGL3

[2] = target: PMGL3 mutant C49V (not stated (permafrost metagenomic library)); assay: SEC; Superdex 75 10/300 GL, 0.4 mL/min, 100 mM Tris-HCl pH 8.0, 150 mM NaCl; sample after incubation for 1 h at 40 °C; column calibrated with 29-669 kDa standards
[3] = target: PMGL3 mutant C49V (not stated (permafrost metagenomic library)); assay: SEC; Superdex 75 10/300 GL, 0.4 mL/min, 100 mM Tris-HCl pH 8.0, 150 mM NaCl; fresh sample before heating; column calibrated with 29-669 kDa standards
[4] = target: PMGL3 mutant C207F (not stated (permafrost metagenomic library)); assay: SEC; Superdex 75 10/300 GL, 0.4 mL/min, 100 mM Tris-HCl pH 8.0, 150 mM NaCl; sample after incubation for 1 h at 40 °C; column calibrated with 29-669 kDa standards
[5] = target: PMGL3 mutant C207F (not stated (permafrost metagenomic library)); assay: SEC; Superdex 75 10/300 GL, 0.4 mL/min, 100 mM Tris-HCl pH 8.0, 150 mM NaCl; fresh sample before heating; column calibrated with 29-669 kDa standards
[6] = target: cold-active esterase PMGL3 (wild type) (not stated (permafrost metagenomic library)); assay: SEC; Superdex 75 10/300 GL, 0.4 mL/min, 100 mM Tris-HCl pH 8.0, 150 mM NaCl; sample after incubation for 1 h at 40 °C; column calibrated with 29-669 kDa standards
[7] = target: cold-active esterase PMGL3 (wild type) (not stated (permafrost metagenomic library)); assay: SEC; Superdex 75 10/300 GL, 0.4 mL/min, 100 mM Tris-HCl pH 8.0, 150 mM NaCl; fresh sample before heating; column calibrated with 29-669 kDa standards

Substance	Km [1] [µM]	Vmax [1] [µM/min/mg]	kcat [1] [s⁻¹]	kcat/Km [1] [M⁻¹ s⁻¹]	other results
PMGL3 (unidentified)	980	165000	91.5	93400	–
PMGL3 (unidentified; C49V)	1290	94700	52.6	40800	–
PMGL3 (unidentified; C207F)	170	94600	52.5	309000	–
PMGL3 mutant C49V (enzyme)	–	–	–	–	stoichiometry N [2]: 4; stoichiometry N [3]: 2
PMGL3 mutant C207F (enzyme)	–	–	–	–	stoichiometry N [4]: 4; stoichiometry N [5]: 2
cold-active esterase PMGL3 (wild type) (enzyme)	–	–	–	–	stoichiometry N [6]: 4; stoichiometry N [7]: 2
